The assay concerns the target T1, human amylin receptor 3 (hAMYR3), hCTR2 co-expressed with human receptor activity modifying protein 3 (hRAMP3) (human, UniProt P30988 25-474; O60896 24-148).
T1 sequence (looked up) 1: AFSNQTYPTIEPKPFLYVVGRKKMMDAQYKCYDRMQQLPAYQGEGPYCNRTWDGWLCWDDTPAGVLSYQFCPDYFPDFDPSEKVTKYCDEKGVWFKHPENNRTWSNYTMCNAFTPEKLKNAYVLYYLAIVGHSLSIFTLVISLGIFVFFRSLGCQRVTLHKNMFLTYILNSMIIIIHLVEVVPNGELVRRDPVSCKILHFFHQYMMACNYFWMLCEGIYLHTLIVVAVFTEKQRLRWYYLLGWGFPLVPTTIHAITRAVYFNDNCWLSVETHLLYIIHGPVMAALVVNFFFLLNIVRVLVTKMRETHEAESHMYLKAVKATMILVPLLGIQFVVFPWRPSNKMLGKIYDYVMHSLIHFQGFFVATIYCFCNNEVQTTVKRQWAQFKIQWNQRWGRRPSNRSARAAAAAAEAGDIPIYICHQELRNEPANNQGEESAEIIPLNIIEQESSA
T1 sequence (looked up) 2: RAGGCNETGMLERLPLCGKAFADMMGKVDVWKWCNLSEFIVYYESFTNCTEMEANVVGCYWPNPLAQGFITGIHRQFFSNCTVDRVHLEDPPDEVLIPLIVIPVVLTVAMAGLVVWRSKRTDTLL
Kind of assay: cell-based or functional assay.

*1 amine or outer side, *2 acyl side, *3 side chain or, on linkers, in order; H or OH if unused. Bridges are numbered along the chain shown (N, C = ends). [ ]: non-standard residue; d: D form. The star is where a group is joined. C20 diacid = O=C(O)CCCCCCCCCCCCCCCCCCC(=O)*; γGlu = O=C(O)[C@H](CCC(=O)[*:2])N[*:1]; Hyp = O=C(O)[C@@H]1C[C@@H](O)CN1; NMeI = CC[C@H](C)[C@H](NC)C(=O)O; Sar = CNCC(=O)O

B1: [19CD]-isoGlu-R-C( )-PTAT-C( )-ATDRLAHFLQRSSF-Gly(Me)-A-Ile(Me)-LSSTDVGSNT-Hyp-NH2 (Compd. 59) (peptide)
peptide: {C20 diacid}-[γGlu]RCPTATCATDRLAHFLQRSSF[Sar]A[NMeI]LSSTDVGSNT[Hyp]-NH2
modifications: disulfide 3-8
SMILES: CC[C@H](C)[C@@H](C(=O)N[C@@H](CC(C)C)C(=O)N[C@@H](CO)C(=O)N[C@@H](CO)C(=O)N[C@H](C(=O)N[C@@H](CC(=O)O)C(=O)N[C@H](C(=O)NCC(=O)N[C@@H](CO)C(=O)N[C@@H](CC(N)=O)C(=O)N[C@H](C(=O)N1C[C@H](O)C[C@H]1C(N)=O)[C@@H](C)O)C(C)C)[C@@H](C)O)N(C)C(=O)[C@H](C)NC(=O)CN(C)C(=O)[C@H](Cc1ccccc1)NC(=O)[C@H](CO)NC(=O)[C@H](CO)NC(=O)[C@H](CCCNC(=N)N)NC(=O)[C@H](CCC(N)=O)NC(=O)[C@H](CC(C)C)NC(=O)[C@H](Cc1ccccc1)NC(=O)[C@H](Cc1c[nH]cn1)NC(=O)[C@H](C)NC(=O)[C@H](CC(C)C)NC(=O)[C@H](CCCNC(=N)N)NC(=O)[C@H](CC(=O)O)NC(=O)[C@@H](NC(=O)[C@H](C)NC(=O)[C@@H]1CSSC[C@H](NC(=O)[C@H](CCCNC(=N)N)NC(=O)CC[C@H](NC(=O)CCCCCCCCCCCCCCCCCCC(=O)O)C(=O)O)C(=O)N2CCC[C@H]2C(=O)N[C@@H]([C@@H](C)O)C(=O)N[C@@H](C)C(=O)N[C@@H]([C@@H](C)O)C(=O)N1)[C@@H](C)O
For B1, the “hAMYR3 EC50 (nM); cAMP induction” value came to 0.11 nM.

B2: [19CD]-isoGlu-R-C( )-PTAT-C( )-ATERLAHFLQRSSF-Gly(Me)-A-Ile(Me)-LSSTEVGSNT-Hyp-NH2 (Compd. 63) (peptide)
peptide: {C20 diacid}-[γGlu]RCPTATCATERLAHFLQRSSF[Sar]A[NMeI]LSSTEVGSNT[Hyp]-NH2
modifications: disulfide 3-8
SMILES: CC[C@H](C)[C@@H](C(=O)N[C@@H](CC(C)C)C(=O)N[C@@H](CO)C(=O)N[C@@H](CO)C(=O)N[C@H](C(=O)N[C@@H](CCC(=O)O)C(=O)N[C@H](C(=O)NCC(=O)N[C@@H](CO)C(=O)N[C@@H](CC(N)=O)C(=O)N[C@H](C(=O)N1C[C@H](O)C[C@H]1C(N)=O)[C@@H](C)O)C(C)C)[C@@H](C)O)N(C)C(=O)[C@H](C)NC(=O)CN(C)C(=O)[C@H](Cc1ccccc1)NC(=O)[C@H](CO)NC(=O)[C@H](CO)NC(=O)[C@H](CCCNC(=N)N)NC(=O)[C@H](CCC(N)=O)NC(=O)[C@H](CC(C)C)NC(=O)[C@H](Cc1ccccc1)NC(=O)[C@H](Cc1c[nH]cn1)NC(=O)[C@H](C)NC(=O)[C@H](CC(C)C)NC(=O)[C@H](CCCNC(=N)N)NC(=O)[C@H](CCC(=O)O)NC(=O)[C@@H](NC(=O)[C@H](C)NC(=O)[C@@H]1CSSC[C@H](NC(=O)[C@H](CCCNC(=N)N)NC(=O)CC[C@H](NC(=O)CCCCCCCCCCCCCCCCCCC(=O)O)C(=O)O)C(=O)N2CCC[C@H]2C(=O)N[C@@H]([C@@H](C)O)C(=O)N[C@@H](C)C(=O)N[C@@H]([C@@H](C)O)C(=O)N1)[C@@H](C)O
Regarding B2, the “hAMYR3 EC50 (nM); cAMP induction” value turned out to be 0.37 nM.

B3: [19CD]-isoGlu-R-C( )-NTAT-C( )-ATQRLAHFLQRSSF-Gly(Me)-A-Ile(Me)-LSSTEVGSNTP-NH2 (Compd. 61) (peptide)
peptide: {C20 diacid}-[γGlu]RCNTATCATQRLAHFLQRSSF[Sar]A[NMeI]LSSTEVGSNTP-NH2
modifications: disulfide 3-8
SMILES: CC[C@H](C)[C@@H](C(=O)N[C@@H](CC(C)C)C(=O)N[C@@H](CO)C(=O)N[C@@H](CO)C(=O)N[C@H](C(=O)N[C@@H](CCC(=O)O)C(=O)N[C@H](C(=O)NCC(=O)N[C@@H](CO)C(=O)N[C@@H](CC(N)=O)C(=O)N[C@H](C(=O)N1CCC[C@H]1C(N)=O)[C@@H](C)O)C(C)C)[C@@H](C)O)N(C)C(=O)[C@H](C)NC(=O)CN(C)C(=O)[C@H](Cc1ccccc1)NC(=O)[C@H](CO)NC(=O)[C@H](CO)NC(=O)[C@H](CCCNC(=N)N)NC(=O)[C@H](CCC(N)=O)NC(=O)[C@H](CC(C)C)NC(=O)[C@H](Cc1ccccc1)NC(=O)[C@H](Cc1c[nH]cn1)NC(=O)[C@H](C)NC(=O)[C@H](CC(C)C)NC(=O)[C@H](CCCNC(=N)N)NC(=O)[C@H](CCC(N)=O)NC(=O)[C@@H](NC(=O)[C@H](C)NC(=O)[C@@H]1CSSC[C@H](NC(=O)[C@H](CCCNC(=N)N)NC(=O)CC[C@H](NC(=O)CCCCCCCCCCCCCCCCCCC(=O)O)C(=O)O)C(=O)N[C@@H](CC(N)=O)C(=O)N[C@@H]([C@@H](C)O)C(=O)N[C@@H](C)C(=O)N[C@@H]([C@@H](C)O)C(=O)N1)[C@@H](C)O
As for B3, the “hAMYR3 EC50 (nM); cAMP induction” value amounted to 0.17 nM.

B4: [19CD]-isoGlu-R-C( )-NTAT-C( )-ATERLAHFLQRSSF-Gly(Me)-A-Ile(Me)-LSSTEVGSNTP-NH2 (Compd. 62) (peptide)
peptide: {C20 diacid-γGlu}-RCNTATCATERLAHFLQRSSF[Sar]A[NMeI]LSSTEVGSNTP-NH2
modifications: disulfide 2-7
SMILES: CC[C@H](C)[C@@H](C(=O)N[C@@H](CC(C)C)C(=O)N[C@@H](CO)C(=O)N[C@@H](CO)C(=O)N[C@H](C(=O)N[C@@H](CCC(=O)O)C(=O)N[C@H](C(=O)NCC(=O)N[C@@H](CO)C(=O)N[C@@H](CC(N)=O)C(=O)N[C@H](C(=O)N1CCC[C@H]1C(N)=O)[C@@H](C)O)C(C)C)[C@@H](C)O)N(C)C(=O)[C@H](C)NC(=O)CN(C)C(=O)[C@H](Cc1ccccc1)NC(=O)[C@H](CO)NC(=O)[C@H](CO)NC(=O)[C@H](CCCNC(=N)N)NC(=O)[C@H](CCC(N)=O)NC(=O)[C@H](CC(C)C)NC(=O)[C@H](Cc1ccccc1)NC(=O)[C@H](Cc1c[nH]cn1)NC(=O)[C@H](C)NC(=O)[C@H](CC(C)C)NC(=O)[C@H](CCCNC(=N)N)NC(=O)[C@H](CCC(=O)O)NC(=O)[C@@H](NC(=O)[C@H](C)NC(=O)[C@@H]1CSSC[C@H](NC(=O)[C@H](CCCNC(=N)N)NC(=O)CC[C@H](NC(=O)CCCCCCCCCCCCCCCCCCC(=O)O)C(=O)O)C(=O)N[C@@H](CC(N)=O)C(=O)N[C@@H]([C@@H](C)O)C(=O)N[C@@H](C)C(=O)N[C@@H]([C@@H](C)O)C(=O)N1)[C@@H](C)O
Consider B4, for which the “hAMYR3 EC50 (nM); cAMP induction” value was 0.22 nM.

B5: [19CD]-isoGlu-R-C( )-GTAT-C( )-ATERLAHFLNRSSF-Gly(Me)-A-Ile(Me)-LSSTEVGSNT-Hyp-NH2 (Compd. 6) (peptide)
peptide: {C20 diacid}-[γGlu]RCGTATCATERLAHFLNRSSF[Sar]A[NMeI]LSSTEVGSNT[Hyp]-NH2
modifications: disulfide 3-8
SMILES: CC[C@H](C)[C@@H](C(=O)N[C@@H](CC(C)C)C(=O)N[C@@H](CO)C(=O)N[C@@H](CO)C(=O)N[C@H](C(=O)N[C@@H](CCC(=O)O)C(=O)N[C@H](C(=O)NCC(=O)N[C@@H](CO)C(=O)N[C@@H](CC(N)=O)C(=O)N[C@H](C(=O)N1C[C@H](O)C[C@H]1C(N)=O)[C@@H](C)O)C(C)C)[C@@H](C)O)N(C)C(=O)[C@H](C)NC(=O)CN(C)C(=O)[C@H](Cc1ccccc1)NC(=O)[C@H](CO)NC(=O)[C@H](CO)NC(=O)[C@H](CCCNC(=N)N)NC(=O)[C@H](CC(N)=O)NC(=O)[C@H](CC(C)C)NC(=O)[C@H](Cc1ccccc1)NC(=O)[C@H](Cc1c[nH]cn1)NC(=O)[C@H](C)NC(=O)[C@H](CC(C)C)NC(=O)[C@H](CCCNC(=N)N)NC(=O)[C@H](CCC(=O)O)NC(=O)[C@@H](NC(=O)[C@H](C)NC(=O)[C@@H]1CSSC[C@H](NC(=O)[C@H](CCCNC(=N)N)NC(=O)CC[C@H](NC(=O)CCCCCCCCCCCCCCCCCCC(=O)O)C(=O)O)C(=O)NCC(=O)N[C@@H]([C@@H](C)O)C(=O)N[C@@H](C)C(=O)N[C@@H]([C@@H](C)O)C(=O)N1)[C@@H](C)O
For the molecule B5, the “hAMYR3 EC50 (nM); cAMP induction” value was 0.22 nM.

B6: [19CD]-isoGlu-R-C( )-NTAT-C( )-ATERLAHFLQRSSF-Gly(Me)-A-Ile(Me)-LSSTEVGSDT-Hyp-NH2 (Compd. 60) (peptide)
peptide: {C20 diacid-γGlu}-RCNTATCATERLAHFLQRSSF[Sar]A[NMeI]LSSTEVGSDT[Hyp]-NH2
modifications: disulfide 2-7
SMILES: CC[C@H](C)[C@@H](C(=O)N[C@@H](CC(C)C)C(=O)N[C@@H](CO)C(=O)N[C@@H](CO)C(=O)N[C@H](C(=O)N[C@@H](CCC(=O)O)C(=O)N[C@H](C(=O)NCC(=O)N[C@@H](CO)C(=O)N[C@@H](CC(=O)O)C(=O)N[C@H](C(=O)N1C[C@H](O)C[C@H]1C(N)=O)[C@@H](C)O)C(C)C)[C@@H](C)O)N(C)C(=O)[C@H](C)NC(=O)CN(C)C(=O)[C@H](Cc1ccccc1)NC(=O)[C@H](CO)NC(=O)[C@H](CO)NC(=O)[C@H](CCCNC(=N)N)NC(=O)[C@H](CCC(N)=O)NC(=O)[C@H](CC(C)C)NC(=O)[C@H](Cc1ccccc1)NC(=O)[C@H](Cc1c[nH]cn1)NC(=O)[C@H](C)NC(=O)[C@H](CC(C)C)NC(=O)[C@H](CCCNC(=N)N)NC(=O)[C@H](CCC(=O)O)NC(=O)[C@@H](NC(=O)[C@H](C)NC(=O)[C@@H]1CSSC[C@H](NC(=O)[C@H](CCCNC(=N)N)NC(=O)CC[C@H](NC(=O)CCCCCCCCCCCCCCCCCCC(=O)O)C(=O)O)C(=O)N[C@@H](CC(N)=O)C(=O)N[C@@H]([C@@H](C)O)C(=O)N[C@@H](C)C(=O)N[C@@H]([C@@H](C)O)C(=O)N1)[C@@H](C)O
For B6, the “hAMYR3 EC50 (nM); cAMP induction” value was determined as 0.09 nM.

These data come from patent US20160272693A1 (ZEALAND PHARMA A S, published 2016).
